Test [1] concerns the target T1, soluble, recombinant hFcRn (human, UniProt P55899 24-297; P61769 21-119, limits assumed, biotinylated in the yeast flow cytometry assays (biotin-soluble FcRn); site not stated).
T1 construct: also called rFcRn; soluble FcRn
Nature of the test: competition, flow cytometry: IgG1 inhibits binding of soluble FcRn to yeast-displayed m01s at pH 6.0. For orientation: In flow cytometry, cells or beads pass a laser one at a time.

In test [2] the target is T1, soluble, recombinant hFcRn. Nature of the test: Biacore (SPR), HiswtCH2 at 75-1200 nM. Here is the method:
For reference, the WT CH2 sequence (without the HIS tag) is shown in SEQ ID NO: 1. “HiswtCH2” of FIG. 1 is the WT CH2 sequence with a His tag, e.g., a group of histidine residues in a row, e.g., 6 histidine residues. […] HiswtCH2 was tested at 75, 150, 300, 600, 1200 nM. The A curves (1A, 2A, 3A, 4A, 5A, and 6A) are binding curves; the B curves (1B, 2B, 3B, 4B, 5B, and 6B) are fitted curves.
In general terms: Surface plasmon resonance follows binding to a sensor surface in real time, without labels.

These results are taken from patent US20120230981A1 (RESEARCH CORPORATION TECHNOLOGIES, published 2012).

T1 sequence (P55899 24-297 limits assumed, chain 1 of 2): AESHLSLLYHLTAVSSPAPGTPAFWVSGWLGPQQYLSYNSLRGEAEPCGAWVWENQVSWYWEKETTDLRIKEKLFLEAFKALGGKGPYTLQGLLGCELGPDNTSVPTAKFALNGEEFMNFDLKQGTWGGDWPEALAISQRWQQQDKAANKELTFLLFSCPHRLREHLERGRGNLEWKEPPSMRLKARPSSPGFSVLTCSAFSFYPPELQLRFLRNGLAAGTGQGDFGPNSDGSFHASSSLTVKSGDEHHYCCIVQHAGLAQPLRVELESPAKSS
T1 sequence (P61769 21-119 limits assumed, chain 2 of 2): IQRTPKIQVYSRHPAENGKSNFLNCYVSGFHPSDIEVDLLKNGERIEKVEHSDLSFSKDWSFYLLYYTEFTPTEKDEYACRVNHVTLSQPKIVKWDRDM

As usually defined, the IC50 is the point on the concentration scale where inhibition reaches its midpoint. As to IgG1 (antibody), the IC50 in test [1] was found to be 629 nM.

B1: HiswtCH2 (wild type CH2 domain of human IgG1 with a His tag) (other)
chain: APELLGGPSVFLFPPKPKDTLMISRTPEVTCVVVDVSHEDPEVKFNWYVDGVEVHNAKTKPREEQYNSTYRVVSVLTVLHQDWLNGKEYKCKVSNKALPAPIEKTISKAKGQ
notes: also called wild type (WT) CH2; not shown: His tag, 'e.g., 6 histidine residues'
As a reminder, the Kd is the equilibrium constant for the complex coming apart. In general, koff refers to the first-order rate constant of dissociation. The term kon denotes a measure of how fast the partners come together. For the molecule B1, in test [2], the Kd came out at 90.8 nM, the koff turned out to be 0.00184 s⁻¹ and the kon came out at 20300 M⁻¹ s⁻¹.
